Key:
CD8+ T-cells [1] = test: MHC multimer screening of neoantigen-specific CD8+ T-cells in serially collected peripheral blood lymphocytes of a pembrolizumab responder; format: cell-based, human
Method: HLA-A restricted candidate neoantigens were synthesized in-house (Netherlands Cancer Institute) and HLA-multimers containing these peptides were produced by micro-scale parallel UV-induced peptide exchange reactions as previously described (26, 58). Briefly, peptide-MHC complexes loaded with UV-sensitive peptide were subjected to 366-nm UV light (CAMAG) for one hour at 4° C. in the presence of candidate neoantigen peptide in a 384-well plate. pMHC multimers were generated using a total of 11 different fluorescent streptavidin (SA) conjugates (Invitrogen). For each pMHC monomer, conjugation was performed with two of these fluorochromes. NaN3 (0.02% w/v) and an excess of D-biotin (26.4 mM, Sigma) were added to block residual binding sites. For T cell staining an combinatorial encoding strategy was employed to be able to analyze for reactivity against up to 47 different peptides in parallel (27). The PBMC samples were thawed, treated with DNAse for 1 h and stained with pMHC multimer panels for 15 min at 37 C. Subsequently, anti-CD8-AF700 (Invitrogen), anti-CD4-FITC (Invitrogen), anti-CD14-FITC (Invitrogen), anti-CD16-FITC (Invitrogen), anti-CD19-FITC (Invitrogen), and LIVE/DEAD Fixable IR Dead Cell Stain Kit (Invitrogen) were added for additional 20 min on ice. Data acquisition was performed on an LSR II flow cytometer (Becton Dickinson) with FACSDiva 6 software. Cutoff values for the definition of positive responses were ≥0.005% of total CD8+ cells and ≥10 events. For immunophenotypical analysis, day 44 PMLs were stained with HERC1 P3278S MHC multimers in two colors (qdot 625 (Invitrogen) and PerCPeFluor710 (ebioscience)) plus anti-CD45RA Ab (Invitrogen), anti-CCR7 Ab (BD Bioscience), anti-HLA-DR Ab (BD Bioscience), and anti-LAG-3 Ab (R&D systems). The immunophenotype of HERC1 P3278S reactive and bulk CD8+ T-cells were analyzed. Data were acquired using an LSR II flow cytometer (Becton Dickson) with FASCDiva 6 software.

CD8+ T-cells [2] = test: Intracellular cytokine staining after re-stimulation with mutant or wild-type HERC1 peptide; format: cell-based, human; conditions: PBLs from day 63 and 297 expanded with mutant peptide, re-stimulated
Method: HERC1 P>S mutant and wild type peptides of 9 amino acids in length (Mutant: […] (SEQ ID NO: 344), Wild type: […] (SEQ ID NO: 5925)) were synthesized (GenScript Piscataway, N.J.). 1.5×10^6 patient PBMCs were cultured with 1.5×10^6 autologous PBMCs pulsed with HERC1 P>S mutant peptide in RPMI media containing 10% pooled human serum (PHS), 10 mM HEPES, 2 mM L Glutamine, and 50 μM β-mercaptoethanol supplemented with IL-15 (10 ng/ml) and IL-2 (10 IU/ml), using methods previously described (59). […] Cells were then treated with 1× Brefeldin A and monensin (BioLegend) for 4 hours, and subsequently stained with 1 μL Alexa Fluor 405-CD3 (Invitrogen), 3 μL APC-H7-CD8 (BD Bioscience), and 1 μL ECD-CD4 (Beckman Coulter). Upon subsequent washing and permeabilization, the cells were stained with the following antibodies to intracellular cytokines: 3 μL Alexa Fluor 647-IFN-γ (Biolegend), 3 μL PE-MIP-1β, and 1 μL PE-Cy7-TNF-α (BD Pharmingen). Data were acquired by flow cytometry (using CYAN flow cytometer, Summit software, Dako Cytomation California Inc., Carpinteria, Calif.). Analysis was done by FlowJo version 10.1, TreeStar, Inc. CD3+ single cell lymphocytes were gated for analysis (SS vs. FS [low, mid], FS vs. Pulse Width [all, low], and CD3 vs. “dump” channel [high, low]).

[3] = tested on: stage IV non-small cell lung cancer (NSCLC) patients; conditions: 10 mg/kg every 2-3 weeks vs 2 mg/kg every 3 weeks; reference (6); cited from earlier work
[4] = approximately 2000 patients; cited from earlier work
[5] = tested on: stage IV non-small cell lung cancer (NSCLC) patients; test: Clinical efficacy of pembrolizumab in NSCLC patients (protocol NCT01295827), by tumor genomic subgroup; format: in vivo, human; conditions: for ORR: all 34
Method: All patients had stage IV non-small cell lung cancer (NSCLC) and were treated at Memorial Sloan Kettering Cancer Center (n=29) or the University of California at Los Angeles (n=5) on protocol NCT01295827 (FIG. 17). All patients initiated therapy in 2012-2013 and were treated at 10 mg/kg every 2-3 weeks, except for 5 patients treated at 2 mg/kg every 3 weeks. The overall response rate and progression-free survival are reported to be similar across dose and schedules (6). All patients had consented to Institutional Review Board-approved protocols permitting tissue collection and sequencing. PD-L1 expression was assessed prospectively by immunohistochemistry using a previously validated murine anti-human anti-PD-L1 antibody (clone 22C3, Merck & Co., Inc.). Membranous expression of PD-L1 on tumor cells and infiltrating immune cells were scored. 31 (91%) scored at least 1% positive for PD-L1 expression; 2 patients were PD-L1 negative; and 1 was unknown. Smoking status was evaluated using previously completed self-reported smoking questionnaires executed as standard of care at MSKCC or review of medical records at UCLA.
Per protocol, CT scans were performed every nine weeks. Partial and complete responses were confirmed by a repeat imaging occurring at least 4 weeks after the initial identification of response; unconfirmed responses were considered stable or progressive disease dependent on results of the second CT scan. Durable clinical benefit (DCB) was defined as stable disease or partial response lasting longer than 6 months (week 27, the time of third protocol-scheduled response assessment). No durable benefit (NDB) was defined as progression of disease ≤6 months of beginning therapy. Patients who were still ongoing study therapy at the time of the data lock (Oct. 10, 2014) but who had not yet reached 6 months of follow up were considered “Not reached” (NR). These patients were not included in the analysis of DCB/NDB, but were included in assessments of objective response and progression-free survival. For patients with ongoing response to study therapy, progression free survival was censored at the date of the most recent imaging evaluation. For alive patients, overall survival was censored at the date of last known contact.
Mann-Whitney test was used to compare mutation burdens and differences in the frequency of nucleotide changes. The Log-Rank and Mantel-Haenszel tests were used to compare Kaplan-Meier survival curves. The proportion of objective responders/non-responders or DCB/NDB were compared using Fisher's Exact Test. The receiver operator characteristic (ROC) curve was generated by plotting the proportion of all DCB patients with mutation burden above any given cut point (sensitivity) against the proportion of the NDB patients that would also exceed the same cut point (1-specificity). The area under the curve and exact 95% confidence intervals are reported. Correlations between nonsynonymous mutation burden and neoantigen burden, neoantigen burden and best overall response, and frequency of neoantigen burden/nonsynonymous mutation and best overall response were calculated using Spearman correlation formula. Statistical analyses were performed using GraphPad Prism v.6 (Graphpad Prism Software, San Diego, Calif.).

[6] = cited from earlier work
[7] = discovery cohort, high nonsynonymous burden
[8] = discovery cohort, low nonsynonymous burden
[9] = validation cohort, nonsynonymous mutation burden above the median
[10] = validation cohort, nonsynonymous mutation burden below the median
[11] = 411 patients, Trial 1, all grades

ASNASSAAK (listed as Homo sapiens) [synthesized 9 amino acid mutant HERC1 P>S neoantigen peptide]
HERC1 P3278S neoantigen-specific CD8+ T-cell response (MHC multimer+) (CD8+ T-cells [1]; Day 44): 0.044 % of Cd8+ T-cells | HERC1 P3278S neoantigen-specific CD8+ T-cell response (MHC multimer+) (CD8+ T-cells [1]; at start of therapy, level of detection): < 0.005% | HERC1 P3278S neoantigen-specific CD8+ T-cell response (MHC multimer+) (CD8+ T-cells [1]; subsequent months as tumor regression plateaued): just above background | HERC1 P3278S neoantigen-specific CD8+ T-cell response (MHC multimer+) (CD8+ T-cells [1]; within 3 weeks post therapy initiation): 0.040 % of CD8+ T-cells | polyfunctional CD8+ T-cells (IFNγ, CD107a, MIP113, TNFα production) in response to peptide (CD8+ T-cells [2]): detected

ASNAPSAAK (listed as Homo sapiens) [synthesized 9 amino acid wild type HERC1 peptide]
polyfunctional CD8+ T-cells (IFNγ, CD107a, MIP113, TNFα production) in response to peptide (CD8+ T-cells [2]): not

pembrolizumab
overall response rate and progression-free survival across dose and schedules [3]: similar | additional immune-mediated adverse reactions, patients: myasthenic syndrome, optic neuritis, rhabdomyolysis [4]: less than 1% | median PFS ([5]; TH tumors): not reached | rate of DCB ([5]; TH tumors): 77% | median PFS ([5]; TL tumors): 3.5 | rate of DCB ([5]; TL tumors): 22% | ORR ([5]; transversion-high (TH, smoking signature) tumors): 56% | ORR ([5]; transversion-low (TL) tumors): 17% | confirmed objective response rate (ORR) [5, 7]: 63% | median PFS [5, 7]: 14.5 months | rate of durable clinical benefit (DCB) ([5]; discovery cohort, high nonsynonymous burden (above median of cohort)): Seventy-three | rate of durable clinical benefit (DCB) ([5]; discovery cohort, low mutation burden): 13% | confirmed objective response rate (ORR) [5, 8]: 0% | median PFS [5, 8]: 3.7 months | rate of DCB ([5]; high nonsynonymous mutation burden (>200) and some PD-L1 expression (weak/strong)): 91% | rate of DCB ([5]; low mutation burden and some degree of PD-L1 expression): 10% | decrease in tumor burden ([5]; one patient (Study ID #9) with exceptional response): 95% | duration of partial response ([5]; one tumor with very low burden (56 nonsynonymous mutations)): 8 months | median PFS ([5]; overall set, high neoantigen burden): 14.5 months | median PFS ([5]; overall set, low neoantigen burden): 3.5 months | rate of DCB ([5]; self-reported ever smokers): 48% | rate of DCB ([5]; self-reported never-smokers): 33% | tumors with no durable benefit (NDB) ([5]; tumors with ≥178 nonsynonymous mutations, both cohorts): 5 of 18 | median PFS [5, 9]: not reached | rate of DCB [5, 9]: 83% | median PFS [5, 10]: 3.4 months | rate of DCB [5, 10]: 22% | rate of durable benefit ([5]; validation cohort, tumors harboring ≥178 mutations): 75% | rate of durable benefit ([5]; validation cohort, tumors with <178 mutations): 14% | rate of DCB ([5]; weak PD-L1 expression, high nonsynonymous mutation burden): 75% | rate of DCB ([5]; weak PD-L1 expression, low mutation burden): 11% | Pneumonitis, patients ([6]; 411 melanoma patients, Trial 1, all grades): 2.9% | Colitis (including microscopic colitis), patients [6, 11]: 1% | Hepatitis (including autoimmune hepatitis), patients [6, 11]: 0.5% | Hyperthyroidism, patients [6, 11]: 1.2% | Hypophysitis, patients [6, 11]: 0.5% | Hypothyroidism, patients [6, 11]: 8.3% | Colitis Grade 2, patients ([6]; Trial 1): 0.2% | Colitis Grade 3, patients ([6]; Trial 1): 0.5% | Hepatitis Grade 4, patients ([6]; Trial 1): 0.2% | Hyperthyroidism Grade 2, patients ([6]; Trial 1): 0.5% | Hyperthyroidism Grade 3, patients ([6]; Trial 1): 0.2% | Hypophysitis Grade 2, patients ([6]; Trial 1): 0.2% | Hypophysitis Grade 4, patients ([6]; Trial 1): 0.2% | Hypothyroidism Grade 3, patients ([6]; Trial 1): 0.2% | Pneumonitis Grade 2, patients ([6]; Trial 1): 1.9% | Pneumonitis Grade 3, patients ([6]; Trial 1): 0.2% | discontinuation of KEYTRUDA due to pneumonitis, patients ([6]; Trial 1): 0.7% | median duration of colitis ([6]; Trial 1): 2.6 months | median duration of hyperthyroidism ([6]; Trial 1): 2.8 months | median duration of pneumonitis ([6]; Trial 1): 4.9 months | median time to development of pneumonitis ([6]; Trial 1): 5 months | other immune-mediated adverse reactions, patients: exfoliative dermatitis, uveitis, arthritis, myositis, pancreatitis, hemolytic anemia, partial seizures, adrenal insufficiency ([6]; Trial 1): less than 1% | patients who received corticosteroids or discontinued KEYTRUDA for management of hypothyroidism ([6]; Trial 1): No patient | permanent discontinuation of KEYTRUDA due to colitis, patients ([6]; Trial 1): 0.2% | permanent discontinuation of KEYTRUDA due to hyperthyroidism, patients ([6]; Trial 1): 0.2% | Nephritis, patients ([6]; all grades): 0.7% | duration of hepatitis ([6]; case of Grade 4 hepatitis): 1.1 months | Grade 2 autoimmune nephritis, patients ([6]; human, in vivo): 0.2% | duration of autoimmune nephritis ([6]; human, in vivo): 3.2 months | most common adverse reactions, patients: fatigue, cough, nausea, pruritus, rash, decreased appetite, constipation, arthralgia, diarrhea ([6]; human, in vivo): > 20% | patients who fully recovered renal function ([6]; nephritis, with high-dose corticosteroids): All three | interstitial nephritis with renal failure, patients ([6]; one Grade 3 and one Grade 4): 0.5% | pneumonitis completely resolved ([6]; patients with Grade 2-3 pneumonitis): seven of the nine | complete resolution of colitis ([6]; patients with colitis): All four | complete resolution of hepatitis ([6]; patients with hepatitis): Both | complete resolution of hyperthyroidism ([6]; patients with hyperthyroidism): All five

Reference: patent US10993998B2, “Determinants of cancer response to immunotherapy by PD-1 blockade” (Memorial Sloan Kettering Cancer Center, priority 2014, dated 2021)
